Laboratory results from the supplement of paper PMC12042874.
± gives the uncertainty stated by the source.

test: amyloid nucleation score (Sup35N fusion, yeast selection) (log enrichment); library NNK1; higher = more nucleation; inactive = no reads after selection
Method in brief: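 Psi-negative yeast expressed Sup35N fused to peptides of 20 random codons. They were induced 24 hours with 100 μM copper sulfate, grown 7 days at 30°C without adenine and uracil, and their plasmid inserts from input and output were Illumina-sequenced. The nucleation score is the DiMSum log enrichment of output over input reads, centred on the mode score of non-aggregating sequences. Sequences with under 100 input reads were excluded.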

| Substance | amyloid nucleation score |
| --- | --- |
| DDVVWNYSTA | -0.487 ± 0.58 |
| DEDERWCLDIVG | -0.076 ± 0.37 |
| DEFSFDSSLLMLFGAGYGV | 0.932 ± 0.62 |
| DFCFPSNVRGLDCGGSKGYR | inactive |
| DFCLNGSYFNTLDNSGCSSL | -0.114 ± 0.52 |
| DFENWPVRLWYFKTIFLRS | 1.93 ± 0.51 |
| DFILLVVLYFVLYFFTCMVL | 0.22 ± 0.72 |
| DFRKDWYWESPASRFFTNEV | 0.44 ± 0.53 |
| DFSVQKSGSYQTEHYLVFRN | -0.12 ± 0.21 |
| DFVETEFRLRRD | inactive |
| DGAYWELSY | -0.506 ± 0.27 |
| DGEFRRDSSCVGVEERVVLV | 0.551 ± 1.2 |
| DGELMAYLSDGNQG | inactive |
| DGFMCFLYKLASQT | 0.158 ± 0.78 |
| DGLLSIEYMNVYSSS | 0.326 ± 0.77 |
| DGNLKSR | 0.644 ± 0.78 |
| DGSCKLYVVFRPAVLGHGHS | 1.05 ± 0.85 |
| DGSGRGRALTVTIDWAVQLV | 0.26 ± 0.88 |
| DGSVGFLMLEVCLWHSFLAC | inactive |
| DGVRTDLVILFWQCDHYEL | -0.516 ± 0.43 |
| DGYFQFKFYCTEMGMLFCFF | -1.24 ± 0.56 |
| DGYGLIFW | -0.268 ± 0.47 |
| DHFKKILGLCKSGCRVVERE | 0.759 ± 0.41 |
| DHLYLMV | 1.04 ± 0.72 |
| DIATCRIWTVCTCQMCFISV | 6.17 ± 0.089 |

| Substance | amyloid nucleation score |
| --- | --- |
| DIDFLLNLCESNLIFANM | -0.887 ± 0.87 |
| DIERMKVPELFCLLSLDTGP | -0.376 ± 1.7 |
| DIFSA | 1.49 ± 0.43 |
| DIKCLLR | 0.238 ± 0.36 |
| DIVDARFTLTGFKFECVR | 0.297 ± 0.28 |
| DKCCKLSRD | 0.972 ± 0.58 |
| DKLDSLIRVLNRLDNL | -0.316 ± 0.4 |
| DKLSNVFLFLTDGCLNFNSF | 3.1 ± 0.11 |
| DKPIV | -0.09 ± 0.88 |
| DKRKVRFAVMFNWRRELRY | 0.708 ± 0.7 |
| DKWRVRCCRFWLT | 0.191 ± 0.29 |
| DLAWWMSCAHFMSMTRGLQR | 0.595 ± 0.36 |
| DLGNLFLGISVKCI | 0.961 ± 0.53 |
| DLIYTDGLV | -0.743 ± 0.24 |
| DLLDLIQISDSLKILNALPE | 0.845 ± 0.18 |
| DLNLFDRNHVELRMIVD | 0.726 ± 0.65 |
| DLQCVAKVHESVGLGHHVHE | 0.659 ± 0.5 |
| DLVCDFYVGLV | 2.42 ± 0.085 |
| DLYFIKDSTLCTISLFLIYW | 0.324 ± 1.2 |
| DLYKSVPKHNQSNMSDSTES | -0.631 ± 0.6 |
| DMKNDYLHVGFWVLIGWHYL | 0.743 ± 0.37 |
| DMKNYVPVLLGNTMIMLWGL | 3.08 ± 0.085 |
| DMLRMVRYTVWVSRVRSHGW | 3.07 ± 0.079 |
| DMLSEIFGSSPNEYAPH | 0.521 ± 0.29 |
| DNDYDLDPVGIRVHLFNQ | inactive |

| Substance | amyloid nucleation score |
| --- | --- |
| DNGLGRRWARAKYKECRKAR | 0.141 ± 0.27 |
| DNGVLQNNWVIMYCELHHGV | 5.691 ± 0.052 |
| DNLNYEMHVLWMCNL | 4.82 ± 0.056 |
| DNNTVITIEQC | 0.286 ± 1 |
| DNRLVSSGMRRGHSGWIGGT | 0.505 ± 0.71 |
| DNRVLVPRRAFNDHIWCMYV | -0.23 ± 0.61 |
| DNTHSSFIHFETGKKYYA | 0.319 ± 0.78 |
| DPAYEQGGLFEVGTIHCNIK | 0.527 ± 0.46 |
| DPDHGPFQNNVWQRRPRWSH | 0.124 ± 0.47 |
| DPTTPYDISGIWLRLEVRAD | -0.175 ± 0.46 |
| DPVTDVFG | -0.541 ± 0.36 |
| DQITYVPIMNQMMWATLLTF | 0.849 ± 0.59 |
| DQRVDR | 0.107 ± 0.89 |
| DRLGDHLKDILVKFYNV | 0.294 ± 0.99 |
| DRLMFRYSIRRIRFVSESSP | 1.41 ± 0.43 |
| DRLSAT | 0.272 ± 1.2 |
| DRRFRIITHLANSLIWNKWQ | 0.076 ± 0.49 |
| DRRKAPGLMNAMD | 0.737 ± 0.97 |
| DRTTNVEYWLGAEMLSSRTV | -0.469 ± 0.78 |
| DRVCILEQLDRSRGATVCAR | 1.24 ± 0.76 |
| DRWRSL | -0.582 ± 0.96 |
| DSEQGRLIYICFRVTTIRAL | -0.062 ± 0.36 |
| DSGDEGVIVSVSHGWTSEGL | 0.443 ± 0.81 |
| DSGSHRGW | 0.289 ± 0.28 |
| DSIMNGR | 0.713 ± 0.74 |

| Substance | amyloid nucleation score |
| --- | --- |
| DSINCCMMCYEK | 7.567 ± 0.071 |
| DSLSNLCDFCSSK | 0.668 ± 0.5 |
| DSRRGYPMMSMMWW | -0.354 ± 0.39 |
| DSRVLSDYLSSYLSLKYLLV | -0.031 ± 0.62 |
| DSSWTWKDVV | 0.397 ± 1.2 |
| DSVLQDTLIMWCSMKTVSPS | -0.075 ± 0.29 |
| DSYCLRMPIGSCIDWWGKGV | -0.058 ± 0.61 |
| DSYDLY | inactive |
| DSYILRGNSVLGGGTFSVIR | 0.062 ± 0.53 |
| DSYSLSN | -0.179 ± 0.27 |
| DTLDLQLRNVRLTRACMAQY | 0.329 ± 0.34 |
| DTPWWGSGALVFKLCACSAY | -0.341 ± 0.59 |
| DTRNPRITALRY | 0.431 ± 0.39 |
| DTRTSNNPALFRGFTALRVR | 0.412 ± 0.54 |
| DTVYLLGGCCLVVRLNLFIG | 3.77 ± 0.15 |
| DVGMLV | -0.107 ± 0.31 |
| DVIMEGFAMCVWSRVTALLE | 0.492 ± 0.85 |
| DVNNIHLRKLTDCHI | 1.61 ± 0.36 |
| DVTLMCYRQCLDMDMPIDLG | 0.733 ± 0.32 |
| DVVICRYSAVIRVFLTLKFK | -0.202 ± 0.49 |
| DVVLDYSRQTYKDPASRMYA | 1.1 ± 0.71 |
| DVVPSSGFVFMIRTDTLSHN | -0.265 ± 1.2 |
| DVVTSGILTASSRWYVRRGR | -0.729 ± 1.2 |
| DWFSGLNRPRCIKLAQGGTG | 0.441 ± 0.38 |
| DWRNAFLLCYANRNVQTCMS | -0.673 ± 0.3 |

| Substance | amyloid nucleation score |
| --- | --- |
| DYFRYRIFKKSYHKPAVICI | -0.415 ± 0.52 |
| DYGDYCAKWTQSYNALTVRF | 0.594 ± 0.58 |
| DYGIVGAEVKKCLIL | 0.433 ± 0.44 |
| DYSLKCLTPVVSDRAWCRLN | 0.398 ± 0.83 |
| DYSYCKVNPLNSVLSVLVLL | -0.34 ± 0.29 |
| DYTDMYTC | 0.571 ± 0.5 |
| EAGQLLL | inactive |
| EAMLKFTVYTIVRSFNAKSR | 1.11 ± 0.32 |
| EARWRQSC | 0.387 ± 0.36 |
| EASTYHFSCGRANVTDELGT | 0.882 ± 0.53 |
| ECGYFRLVSGERYTPVSSMR | -0.139 ± 0.37 |
| ECKWSLKNHYWVYDGLRGGT | -0.378 ± 0.78 |
| ECMRTRFMGNYNGPGISILY | inactive |
| EDSMNNL | -0.127 ± 0.84 |
| EDVAYYGNGFRLTYDRQITL | -0.733 ± 0.67 |
| EEPLLSDMCITVGVRFLNKS | 3.36 ± 0.22 |
| EFAKNSFAKNTFAADAWLII | 0.802 ± 0.78 |
| EFIIVRRDGLGAVYSVTNAF | 1.08 ± 0.7 |
| EFIKWRAIGENSYGKGDMDR | 0.387 ± 1 |
| EFKWYFAISDKCYVRLKLIK | 0.751 ± 0.45 |
| EFLNSNLLNTYMKLFLIITH | 3.36 ± 0.21 |
| EFTGDRQSYFCLQYSCTSLR | -0.096 ± 1.7 |
| EFVVGDKR | -0.311 ± 0.82 |
| EGPMLVCVLVVSTTGIGRGC | 1.58 ± 0.59 |
| EGTFLSGEHTFLNLGFSNRG | 0.019 ± 0.6 |

| Substance | amyloid nucleation score |
| --- | --- |
| EGTFRLID | 0.047 ± 0.3 |
| EGYVK | 1.1 ± 0.53 |
| EGYYEPVIVI | 0.66 ± 0.47 |
| EHNNFFICVCWSAGTSVRMI | 7.992 ± 0.063 |
| EHSPRRGAL | 0.063 ± 0.66 |
| EIFSNPSVYHESMK | -0.072 ± 1.2 |
| EITFPRAMWANRTTTMDRIM | -0.036 ± 0.4 |
| EKDVAIFLDLGYFHCTRSST | 1.97 ± 0.2 |
| EKWGGGVM | -0.08 ± 0.58 |
| ELEPCDPGF | inactive |
| ELKSAFCWRARLG | 0.197 ± 0.49 |
| ELLCLNL | -0.83 ± 0.73 |
| ELLEILFCSTIVERKNHRRP | 2.11 ± 0.11 |
| ELLFFYYMSSNCFVFISCSQ | 1.59 ± 0.38 |
| ELSSLGTCNCFHIRVSWGYM | 0.99 ± 0.37 |
| EMNLSLSVCALFRFIT | -0.56 ± 0.43 |
| EMSINLRNL | 0.558 ± 0.16 |
| ENDYITCQMSQSVQNVVVVK | 0.647 ± 0.43 |
| EPMMLY | 0.333 ± 0.28 |
| EQASVIKDVYFPHILRLRMA | -0.432 ± 0.4 |
| EQQLQRM | inactive |
| ERDCPYRTMGLRCVNYRFRG | 3.64 ± 0.14 |
| ERGII | 0.621 ± 0.39 |
| ERGMEVLCNYENKGL | 0.918 ± 0.6 |
| ERHMYMSCWFTNY | 0.777 ± 0.21 |

| Substance | amyloid nucleation score |
| --- | --- |
| ERIIRKAC | 0.338 ± 1.4 |
| ERMSRLCSQSGARRKCGAGC | 1.01 ± 0.64 |
| ERPSRN | 0.22 ± 0.93 |
| ERYSMLDGFGSDLNWIIYNN | 0.978 ± 0.71 |
| ESFILVFGGCCNWFGCVYLM | 6.537 ± 0.06 |
| ESFTPSRSTNVRI | -1.24 ± 0.94 |
| ESLFPVCGEMTVTCPLSPTE | 0.423 ± 1.4 |
| ESMRFHRGEVGPLWDVRWGA | 1.61 ± 0.78 |
| ESQLVTAYEH | 0.324 ± 1.1 |
| ESRLLYSFRWVGERAVPSAN | 0.4 ± 0.58 |
| ESVTWSWE | 0.505 ± 0.39 |
| ETHGYFVYVFVCGRWAGMK | -0.114 ± 0.28 |
| ETLSSFI | 0.032 ± 0.28 |
| ETNLFVLNVNNVLVVFWCPP | 6.938 ± 0.046 |
| ETRYPPRVNSVYTVWPMYLL | 0.464 ± 0.43 |
| EVADVGKMMIVVGDCRVFRW | 5.593 ± 0.048 |
| EVISPFQLSSDVGGMSRLGV | 0.73 ± 0.72 |
| EVMDTLYLLLVCRYFAKCIT | inactive |
| EVRLPQTYLVEWGTNQFRF | -0.504 ± 0.57 |
| EVSHT | 0.428 ± 0.25 |
| EVYKHHYLA | 0.044 ± 0.47 |
| EVYVRRRVSIQKEGVLHAQK | 0.907 ± 0.97 |
| EWLLARMTISKRMMW | 0.587 ± 0.29 |
| EYICLLTDSCNDTVLFSCPR | -0.583 ± 0.83 |
| EYRFVN | -0.227 ± 0.28 |
